One experiment deals with 正常人IgG (北京中杉金桥有限公司). The experiment is described as follows: ELISA, coated normal human IgG 0.5 μg/mL, negative control. (In general: In an ELISA, binding on a coated surface is turned into a signal by an enzyme label.)
Experiment [1] deals with VEGFR-3/Ig重组蛋白 (R&D research system corp.) (human) (UniProt P35916). The experiment is described as follows: ELISA, coated VEGFR-3/Fc 0.5 μg/mL, negative control.
For experiment [2], the target named is T1, VEGFR-3/Ig重组蛋白 (R&D research system corp.) (human, UniProt P35916 25-776).
T1 construct: Bought protein; also called VEGFR-3/Fc; VEGFR-3/IgG; not shown: Ig/Fc part of the bought fusion
T1 sequence (looked up): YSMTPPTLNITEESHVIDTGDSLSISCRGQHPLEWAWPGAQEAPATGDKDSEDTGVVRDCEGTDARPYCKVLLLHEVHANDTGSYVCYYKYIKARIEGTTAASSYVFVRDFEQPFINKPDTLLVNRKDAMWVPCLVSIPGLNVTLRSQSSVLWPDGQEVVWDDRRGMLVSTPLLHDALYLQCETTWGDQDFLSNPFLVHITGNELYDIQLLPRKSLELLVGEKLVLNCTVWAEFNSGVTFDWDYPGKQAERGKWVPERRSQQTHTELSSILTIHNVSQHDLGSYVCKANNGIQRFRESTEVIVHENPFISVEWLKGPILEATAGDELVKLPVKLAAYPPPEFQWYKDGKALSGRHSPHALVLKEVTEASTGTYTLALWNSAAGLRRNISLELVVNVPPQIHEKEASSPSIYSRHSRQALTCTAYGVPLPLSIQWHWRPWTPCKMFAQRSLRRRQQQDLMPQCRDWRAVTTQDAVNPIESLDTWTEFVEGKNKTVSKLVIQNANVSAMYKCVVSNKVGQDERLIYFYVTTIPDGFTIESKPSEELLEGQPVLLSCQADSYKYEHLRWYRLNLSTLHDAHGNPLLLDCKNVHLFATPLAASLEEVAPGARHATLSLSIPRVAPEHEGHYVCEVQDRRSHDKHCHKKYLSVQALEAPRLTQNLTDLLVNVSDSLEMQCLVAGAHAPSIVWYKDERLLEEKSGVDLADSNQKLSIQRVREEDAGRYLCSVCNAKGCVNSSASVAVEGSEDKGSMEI
Description: ELISA-type assay, OD450; VEGFR-3/Fc 1 and 2 μg/mL mixed with 20 μg/mL GST-VEGF-D (Fig. 1).

The target of experiment [3] is VEGFR-3/Ig重组蛋白 (R&D research system corp.) (human) (UniProt P35916). The experiment is described as follows: ELISA, coated VEGFR-3/Fc 0.5 μg/mL, supernatant of hybridoma BDD073.
For a further experiment, the target named is T2, HEL细胞表面表达的VEGFR-3 (human, UniProt P35916 25-1363).
T2 construct: whole, on cells; On whole HEL cells in flow cytometry; in HEL cell lysate in the immunoblot; also called VEGFR-3多肽 (175kDa, 125kDa bands of HEL lysate)
Description: Western blot of HEL cell lysate (Fig. 4). Background: A western blot detects proteins with antibodies after separation by electrophoresis.

In experiment [4] the target is VEGFR-3/Ig重组蛋白 (R&D research system corp.) (human) (UniProt P35916). Description: ELISA, coated VEGFR-3/Fc 0.5 μg/mL, scFv at 13 μg/mL.
For experiment [5] the target is unchanged. Description: ELISA, coated VEGFR-3/Fc 0.5 μg/mL, scFv at 6.5 μg/mL.
For experiment [6] the target is unchanged. The experiment is described as follows: ELISA, coated VEGFR-3/Fc 0.5 μg/mL, scFv at 65 μg/mL.

On to 正常鼠血清(1∶1000), for which the figures for the OD 450 (with 正常人IgG (北京中杉金桥有限公司); in experiment [1]) were 0.064 OD450 and 0.05 OD450, respectively.

B1: 重组人GST-VEGF-D (ligand, human, UniProt O43915 89-205, looked up)
chain: FAATFYDIETLKVIDEEWQRTQCSPRETCVEVASELGKSTNTFFKPPCVNVFRCGGCCNEESLICMNTSTSYISKQLFEISVPLTSVPELVPVKVANHTGCKCLPTAPRHPYSIIRR
notes: domain: VHD; Expressed in E. coli BL21(DE3), 38 kD, purified on a GST column; not shown: GST tag encoded by vector pGEX-5X-1 (Amersham)
With B1, the binding result in experiment [2] is given as “binds”.

B2: 抗人VEGFR-3的单克隆抗体ABDD073 (antibody, mouse IgG2a, V domains shown)
VH: QVQLQESGGGLVRPRGSLKLSCAASGFTFNTYAMNWVRQAPGKGLEWIARIRNKSNNYATYYANSVKDRFTISRGDSQSMLYLQMNNLKTEDTAMYYCVRDGYSLVHWGHGTLVTVS
VL: DIVLTQSPASLAVSLGQRATISCRASKSVSTFGYSYMHWYQQKPGQPPKLLIYLASNLESGVPARFSGSGSGTDFTLNIHPVEEEDAATYYCQHSRELMYTFGGGTKLEIKR
notes: The 132-residue entry was amplified with a primer that starts at ATG, so it may hold a leader; also called BDD073上清; monoclonal antibody of hybridoma BDD073 CGMCC No.1537
On to B2, for which the OD 450 in experiment [3] came to 0.889 OD450. The binding result with HEL细胞表面表达的VEGFR-3 is listed as “binds”.

B3: 可溶性抗VEGFR-3单链抗体VL-linker-VH (scFv, not shown: large carriers)
scFv: DIVLTQSPASLAVSLGQRATISCRASKSVSTFGYSYMHWYQQKPGQPPKLLIYLASNLESGVPARFSGSGSGTDFTLNIHPVEEEDAATYYCQHSRELMYTFGGGTKLEIKRGGGGSGGGGSGGSQVQLQESGGGLVRPRGSLKLSCAASGFTFNTYAMNWVRQAPGKGLEWIARIRNKSNNYATYYANSVKDRFTISRGDSQSMLYLQMNNLKTEDTAMYYCVRDGYSLVHWGHGTLVTVS
B3: the OD 450 in experiment [4] worked out at 0.73 OD450; in experiment [5], 0.515 OD450; in experiment [6], 1.01 OD450.

These data come from patent CN1800373A (RADIOLOGY INST OF PLA MILITARY, dated 2006).
